Data reported in the supplement of paper PMC9170038.

Experiments:
[1] = test system: MS2 coat protein; assay: apparent KD of MS2 coat protein, switch OFF state (with FMN for OFF switches, without FMN for ON switches); designed switch direction (-1 OFF switch, 1 ON switch): -1; higher = weaker reporter binding; conditions: FMN input: 0 or 200 uM; Eterna round: R93 (includes R88 designs)
In short: (§1)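 Binding of SNAP-549-labelled MS2 coat protein was measured on designed RNA switches transcribed on-chip from Illumina sequencing clusters. The protein rose in twofold steps from 0.7 or 1.5 nM to 3 µM, with 0.8–1.5 h per step early on and 10–20 min per step later, in 100 mM Tris-HCl pH 7.5, 80 mM KCl, 4 mM MgCl2, without or with constant ligand. Each design's apparent KD is the median of fits to its normalised cluster binding curves.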

[2] = test system: MS2 coat protein; assay: apparent KD of MS2 coat protein, switch ON state; designed switch direction (-1 OFF switch, 1 ON switch): -1; higher = weaker reporter binding; conditions: FMN input: 0 or 200 uM; Eterna round: R93 (includes R88 designs)
In short: as §1

Sequence | apparent KD of MS2 coat protein [1] [nM] | apparent KD of MS2 coat protein [2] [nM]
AAAAUGUCAGGAUAUGCGAAGGCGUCUGACAGACGAGGAUUGCAGAAGGGACAUGAGGAUCACCCAUGUAAAAA [A Change in Energy (MS2 Riboswitch - Exclusion 4)] | 131 | 84.3
AAAAUGUGAGGAUAUCUGGAUAGGAAAAAGAAAACCUAUCCAGAGAAGGCACAUGAGGAUCACCCAUGUAAAAA [JL cataway mod 4] | 114 | 121
AAAAUGUGAGGAUAUGUACGAAAAAAUAAAAAAAUAAAAGUACAGAAGGCACAUGAGGAUCACCCAUGUGUGGG [EX4 400: Minimal 13] | 76.1 | 113
AAAAUGUUAGGAUAUGUGAAGGCGUCUGAUAGACGAGGCCUGCAGAAGGAACAUGAGGAUCACCCAUGUAAAAA [Mod 3 of Nando's Round 1 Power Srip] | 25.6 | 34
AAACACGGAGGAUAUACACCAUACAAACCUCUAAACAAAAAACAUGAGGAUCACCCAUGUAGAAGGCCGAACAA [Default title] | 28 | 24.7
AAACCACAUGAGGAUCACCCAUGUCAGGAUAUGAACGAAAAUAAAUAAAAAUAAAAGUUCAGAAGGGACAAAAA [66%, Wbt, 13] | 77.2 | 42.3
AAAGAUACAGGAUAUACAUGAGGAUCACCCAUGUGAGACCAAAAAUGGGAAAAAGAAAGUAGAAGGGUAUAAAA [Ex 3 May 36] | 91.7 | 39.9
AAAGAUGCAGGAUAUACAUGAGGAUCACCCAUGUUAGACCAAAAAUGGGAAAAAGAAAGUAGAAGGGCAUAAAA [Ex 3 May 34] | 203 | 43.2
AAAGAUGCAGGAUAUACAUGAGGAUCACCCAUGUUAGACCUGAAAAAGGGAAAAGAAAGUAGAAGGGCAUAAUA [Ex 3 May 31] | 11.5 | 12.8
AAAGGACGAGGAUAUACAUGAGGAUCACCCAUGUAAAAAACAUAGUAAAAGUGCUUGUGUAGAAGGCGUCCAAA [Meechl Ex3 2 R2 v9] | 194 | 78.1
AAAGGGUCAGGAUAUCGUUUAAUAAUAAAAUAAAUAAAGAACGAGAAGGGACAUGAGGAUCACCCAUGUAUAAA [May 76] | 89.8 | 65.3
AAAGUACGAGGAUAUACAUAGAUACAGAUACAUGUAGACGUACAUGAGGAUCACCCAUGUAGAAGGCGUACAAG [Mat - Same state - Mayanna Mod - D116] | 327 | 172
AAAUAGCAAGGAUAUACAUGAGGAUCACCCAUGUAAAAAUGGAAAGUAAAAGAAUAAAGUAGAAGGUGCAAAUA [Ex 3 Tesla 2] | 36.9 | 20.6
AAAUAGCAAGGAUAUACAUGAGGAUCACCCAUGUAAGGAUGGUAAGUAUUAGAAGAAAGUAGAAGGUGCAAAUA [Ex 3 Tesla 5] | 55.3 | 33.6
AAAUAGUUAGGAUAUACAUGAGGAUCACCCAUGUGCACUUAUGGAGAAUAGGGUAAUGGUAGAAGGGACUAAAA [EX2 Malc#21] | 39.7 | 36.2
AAAUUGUCAGGAUAUCCUAUAACUCUAAAAUAGAGGAGAUAGGAGAAGGGACAUGAGGAUCACCCAUGUAAAAC [May 86] | 61.7 | 43.7
AAAUUGUCAGGAUAUCCUAUAAUAAUAAAAUAGAGGAAAUAGGAGAAGGGACAUGAGGAUCACCCAUGUAAAAC [May 84] | 37 | 49.2
AAAUUGUCAGGAUAUCGUAGAACAGGGAAAACCUGGAGCUACGAGAAGGGACAUGAGGAUCACCCAUGUAAAAC [May 93] | 71.1 | 62.7
AAAUUGUCAGGAUAUCUUAGAACUCUAAAAUAGAGGAGCUAAGAGAAGGGACAUGAGGAUCACCCAUGUAAAAC [May 89] | 71 | 86.5
AACAAGACAGGAUAUACAUGAGGAUCACCCAUGUGAGAAUAAAGUGGCGUAACACAAAGUAGAAGGGUCAUGGA [Ruby 6] | 55.5 | 32.6
AACAAGUCAGGAUAUCAUACUAAUCACUUGCUUUAAAUGUAUGAGAAGGGACAUGAGGAUCACCCAUGUAAAGA [Exclusion4-cac3] | 34.1 | 46.8
AACAAGUGAGGAUAUUGGAAAAGUAAAUAAGUAAAACAAAACAAGAAGGCACAUGAGGAUCACCCAUGUAAAUA [JR_Exc004_Sub017] | 17.9 | 21.9
AACACACAUGAGGAUCACCCAUGUCAGGAUAUGCCGGGUUAGAGCCAACUGAAAAACCGUAGAAGGGACGAAAA [Bilbo Confounded 9 - Jieux - Exclusion 1] | 61.6 | 66.9

Sequence | apparent KD of MS2 coat protein [1] [nM] | apparent KD of MS2 coat protein [2] [nM]
AACAGACAUGAGGAUCACCCAUGUGAGGAUAUGGCAAUCGAUAGAACUAGAAUGACAACCAGAAGGCACAGCAA [JR_Exc001_Sub004] | 86.3 | 77.6
AACAGGACAGGAUAUACAUGAGGAUCACCCAUGUAGGAAUUAAGCAGAGUACCACACAGUAGAAGGGUCAUGGA [Ruby 26] | 30.4 | 27.6
AACAGGACAGGAUAUACAUGAGGAUCACCCAUGUCACAACAAAGCAGCGCAACACAAAGUAGAAGGGUCAUGGA [Ruby 13] | 59.1 | 75.8
AACAGGUCAGGAUAUGUGGAAAAAAUAAAAAAAAUAAAAACACAGAAGGGACAUGAGGAUCACCCAUGUAAACA [May 23] | 60.4 | 47.2
AACAGGUUAGGAUAUAUCCAACAAAUAAAAAAAAUAUAAGGAUAGAAGGAACAUGAGGAUCACCCAUGUUAACA [May 30] | 17.1 | 20.8
AACAGUACAGGAUAUACAUGAGGAUCACCCAUGUAAAAAGGGAGUGGCGUACCACAAAGUAGAAGGGUACUGGA [Moding Maslow revisited (73) 7] | 172 | 36.9
AACAGUACAGGAUAUACAUGAGGAUCACCCAUGUAAAAAUAAUAAAAGGGAAAAACUCGUAGAAGGGUACUGGA [Moding Maslow revisited (73) 16] | 104 | 63.2
AACAGUACAGGAUAUACAUGAGGAUCACCCAUGUAAAAGGGAAGUGGCGUACCACAAAGUAGAAGGGUACUGGA [Moding Maslow revisited (73) 6] | 121 | 37.6
AACAGUACAGGAUAUACAUGAGGAUCACCCAUGUGAAAAUUAAGUGGAAAACCACAAAGUAGAAGGGUACUGAA [Mat - Exclusion 3 - Eli mod - D58] | 61.7 | 21.4
AACAGUACAGGAUAUACAUGAGGAUCACCCAUGUGAAAAUUAAGUGGCGUACCACAAGGUAGAAGGGUACUGGA [Moding Maslow Revisited (73) 27] | 129 | 32.7
AACAGUACAGGAUAUACAUGAGGAUCACCCAUGUGAAAAUUAAGUGGCGUACCACAAUGUAGAAGGGUACUGAA [Mat - Exclusion 3 - Eli mod - D46] | 232 | 103
AACAGUACAGGAUAUACAUGAGGAUCACCCAUGUGAAAAUUAAGUGGGAAACCACAAUGUAGAAGGGUACUGGA [Mat - Exclusion 3 - Eli mod - D50] | 109 | 121
AACAGUACAGGAUAUACAUGAGGAUCACCCAUGUGACAAUUAAGUGGCGUACCACAGUGUAGAAGGGUACUGGA [Ruby 84] | 113 | 93.1
AACAGUACAGGAUAUACAUGAGGAUCACCCAUGUGAGAAUUAAGUAGAUUGCCACAAAGUAGAAGGGUACUGGA [Ruby 98] | 80.9 | 59.3
AACAGUACAGGAUAUACAUGAGGAUCACCCAUGUGAGACUUAAGUGGCGUACCACAAAGUAGAAGGGUACUGGA [JL Maslow Revisted mod 8] | 386 | 84.1
AACAGUACAGGAUAUACAUGAGGAUCACCCAUGUGGGUGUUAAGUGGCGUACCACAAAGUAGAAGGGUACUGGA [JL In the Red CG] | 106 | 327
AACAUGUCAGGAUAUGCGAAGGCGUCUGACAGACGAGGCUAGCAGAAGGGACAUGAGGAUCACCCAUGUAAAAA [Mod of Power Strip by EINando888 - changed 3 and 30 to C] | 48.8 | 111
AACAUGUGAGGAUAUGUACGAAAAAAUAAAAAAAUAAAAGUACAGAAGGCACAUGAGGAUCACCCAUGUGAAAA [EX4 395: Minimal 8] | 271 | 176
AACAUGUGAGGAUAUUUAAGAAAAGAAAAGAAAGAAAAGAAAAAGAAGGCACAUGAGGAUCACCCAUGUAAGAA [EteRNA is fun!] | 26 | 24.1
AACCAACAUGAGGAUCACCCAUGUCAGGAUAUGCAAACAACAAACAACAAACAACAAAGCAGAAGGGACAACAA [63%, Olong, 1] | 21.1 | 15.2
AACCUGCUAGGAUAUACAGCAGGGAUUCGAAAACCCACGAAACAUGAGGAUCACCCAUGUAGAAGGAGUAGGGA [Teainis] | 16.1 | 20.3
AACGAGUCAGGAUAUACAAAAAAUAAAUAAAUAAAAUAAAAGUAGAAGGGACAUGAGGAUCACCCAUGUAAAUA [JR_Exc004_Sub020] | 44 | 59.3
